# Residue numbers refer to the chain shown, from its start. In names and notes the source's numbering stands.
# B1: Sad1_(1-169) (domain or fragment)
# chain: MFTNTPVGGKRERQNGAHPAWSTLGANSAQIHQNTADLASKMHKLRYTKIRSPPTRVSIESITPKQRFPAPNFEQAYHSNIRYEQEESDNEEFENVVKNGHEASTNVFYESDGDDEEFVNEEYENSIDEESDDEGYSLNEDTTATNASFRYPMNQRSTRKSQFYSSKFK
# B2: FITC labeled Clr3 (enzyme)
# chain: MLASNSDGASTSVKPSDDAVNTVTPWSILLTNNKPMSGSENTLNNESHEMSQILKKSGLCYDPRMRFHATLSEVDDHPEDPRRVLRVFEAIKKAGYVSNVPSPSDVFLRIPAREATLEELLQVHSQEMYDRVTNTEKMSHEDLANLEKISDSLYYNNESAFCARLACGSAIETCTAVVTGQVKNAFAVVRPPGHHAEPHKPGGFCLFNNVSVTARSMLQRFPDKIKRVLIVDWDIHHGNGTQMAFYDDPNVLYVSLHRYENGRFYPGTNYGCAENCGEGPGLGRTVNIPWSCAGMGDGDYIYAFQRVVMPVAYEFDPDLVIVSCGFDAAAGDHIGQFLLTPAAYAHMTQMLMGLADGKVFISLEGGYNLDSISTSALAVAQSLLGIPPGRLHTTYACPQAVATINHVTKIQSQYWRCMRPKHFDANPKDAHVDRLHDVIRTYQAKKLFEDWKITNMPILRDSVSNVFNNQVLCSSNFFQKDNLLVIVHESPRVLGNGTSETNVLNLNDSLLVDPVSLYVEWAMQQDWGLIDINIPEVVTDGENAPVDILSEVKELCLYVWDNYVELSISKNIFFIGGGKAVHGLVNLASSRNVSDRVKCMVNFLGTEPLVGLKTASEEDLPTWYYRHSLVFVSSSNECWKKAKRAKRRYGRLMQSEHTETSDMMEQHYRAVTQYLLHLLQKARPTSQ
# modifications: FITC label
# B3: Sad1_(60-169) (domain or fragment)
# chain: ESITPKQRFPAPNFEQAYHSNIRYEQEESDNEEFENVVKNGHEASTNVFYESDGDDEEFVNEEYENSIDEESDDEGYSLNEDTTATNASFRYPMNQRSTRKSQFYSSKFK
# B4: Sad1_(60-169) with charge-reverse mutations of D114 and E117 (domain or fragment)
# chain: B3 chain with D55R, E58R
# B5: Sad1_(60-169) F118R (domain or fragment)
# chain: B3 chain with F59R
# Assays:
# FITC labeled Clr3 = biological target: B2; assay: MST
# [1] = biological target: Sad1_(1-169)-H2AB complex (S. pombe, UniProt Q09825 1-169; P04913 32-126; P04909 15-108); assay: MST; mixture of Sad1 and H2AB
# Sad1_(1-169)-5R = Sad1_(1-169)-5R (S. pombe, UniProt Q09825 1-169, D114R | E117R | F118R | E121R | E122R); assay: MST; mixture of Sad1-5R and H2AB
# H2AB with H2B Y42R = H2AB with H2B Y42R (S. pombe, UniProt P04913 32-126; P04909 15-108, Y42R); assay: ITC
# [2] = biological target: S. pombe H2AB fusion protein (H2B_(32-126)-H2A_(15-108)) (S. pombe, UniProt P04913 32-126; P04909 15-108); assay: ITC
# H2AB with H2A R79E = H2AB with H2A R79E (S. pombe, UniProt P04913 32-126; P04909 15-108, R79E); assay: ITC
binder,measurement,setting,value
B1,Kd,FITC labeled Clr3,42.9 µM
B2,Kd,[1],10.3 µM
same,Kd,Sad1_(1-169)-5R,47.2 µM
B3,Kd,H2AB with H2B Y42R,44.8 µM
same,Kd,[2],9.1 µM
same,Kd,H2AB with H2A R79E,90.1 µM
B4,Kd,[2],73.5 µM
B5,Kd,[2],> 200 µM

# From PMC11109203 (2024)
